From PMC8799719

Target: insoluble type I collagen fibers from bovine achilles tendon, P02453;P02465
Test: fluorescence detection of EGFP fusion binding to collagen fibers
Settings: parent: est. 100; read off a plot

Q: “activator domain-EGFP (VhaC activator domain fused to EGFP) D207A” was tested. Which percent of parent did it give?
A: 70%

Q: Which percent of parent does the source give for “activator domain-EGFP (VhaC activator domain fused to EGFP) E294A” here?
A: 85%

Q: How did the percent of parent turn out when “activator domain-EGFP (VhaC activator domain fused to EGFP) F107A” was run?
A: 20%

Q: “activator domain-EGFP (VhaC activator domain fused to EGFP) F160A” was tested. Which percent of parent did it give?
A: 86%

Q: How did the percent of parent turn out when “activator domain-EGFP (VhaC activator domain fused to EGFP) F286A” was run?
A: 51%

Q: Which percent of parent does the source give for “activator domain-EGFP (VhaC activator domain fused to EGFP) N290A” here?
A: 88%

Q: With “activator domain-EGFP (VhaC activator domain fused to EGFP) R153A” as the substance, how does the percent of parent read?
A: 32%

Q: Which percent of parent does the source give for “activator domain-EGFP (VhaC activator domain fused to EGFP) R293A” here?
A: 93%

Q: With “activator domain-EGFP (VhaC activator domain fused to EGFP) W234A” as the substance, how does the percent of parent read?
A: 69%

Q: For “activator domain-EGFP (VhaC activator domain fused to EGFP) Y157A”, which percent of parent is on record?
A: 42%

Target: insoluble type I collagen fibers from bovine achilles tendon, P02453;P02465
Test: fluorescence detection of EGFP fusion binding to collagen
Settings: parent: est. 100; read off a plot

Q: “EGFP-PPC (PPC domain of VhaC fused to EGFP) D751A” was tested. Which percent of parent did it give?
A: 3%

Q: How did the percent of parent turn out when “EGFP-PPC (PPC domain of VhaC fused to EGFP) E755A” was run?
A: 51%

Q: How did the percent of parent turn out when “EGFP-PPC (PPC domain of VhaC fused to EGFP) E778A” was run?
A: 21%

Q: For “EGFP-PPC (PPC domain of VhaC fused to EGFP) K753A”, which percent of parent is on record?
A: 100%

Q: For “EGFP-PPC (PPC domain of VhaC fused to EGFP) W729A”, which percent of parent is on record?
A: 58%

Q: “EGFP-PPC (PPC domain of VhaC fused to EGFP) W761A” was tested. Which percent of parent did it give?
A: 7%

Q: For “EGFP-PPC (PPC domain of VhaC fused to EGFP) W770A”, which percent of parent is on record?
A: 100%

Q: For “EGFP-PPC (PPC domain of VhaC fused to EGFP) W789A”, which percent of parent is on record?
A: 19%

Q: For “EGFP-PPC (PPC domain of VhaC fused to EGFP) Y756A”, which percent of parent is on record?
A: 9%

Q: With “EGFP-PPC (PPC domain of VhaC fused to EGFP) Y788A” as the substance, how does the percent of parent read?
A: 73%

Q: How did the percent of parent turn out when “EGFP-PPC (PPC domain of VhaC fused to EGFP) Y791A” was run?
A: 13%
